Experimental data taken from patent US10246495B2, “Variants of Gal2 transporter and their uses” (BUTALCO GMBH, priority 2014, dated 2019).
“Also recorded” adds a separate entry of the source.

B1: V71I: Gal2 of CEN.PK with amino acid exchange V71I alone (protein, UniProt P13181 1-574, looked up, variant V71I)
Galactose transporter: MAVEENNMPVVSQQPQAGEDVISSLSKDSHLSAQSQKYSNDELKAGESGSEGSQSVPIEIPKKPMSEYVTISLLCLCVAFGGFMFGWDTGTISGFVVQTDFLRRFGMKHKDGTHYLSNVRTGLIVAIFNIGCAFGGIILSKGGDMYGRKKGLSIVVSVYIVGIIIQIASINKWYQYFIGRIISGLGVGGIAVLCPMLISEIAPKHLRGTLVSCYQLMITAGIFLGYCTNYGTKSYSNSVQWRVPLGLCFAWSLFMIGALTLVPESPRYLCEVNKVEDAKRSIAKSNKVSPEDPAVQAELDLIMAGIEAEKLAGNASWGELFSTKTKVFQRLLMGVFVQMFQQLTGNNYFFYYGTVIFKSVGLDDSFETSIVIGVVNFASTFFSLWTVENLGHRKCLLLGAATMMACMVIYASVGVTRLYPHGKSQPSSKGAGNCMIVFTCFYIFCYATTWAPVAWVITAESFPLRVKSKCMALASASNWVWGFLIAFFTPFITSAINFYYGYVFMGCLVAMFFYVFFFVPETKGLSLEEIQELWEEGVLPWKSEGWIPSSRRGNNYDLEDLQHDDKPWYKAMLE
B2: V71I and T354A: Gal2 of CEN.PK with amino acid exchanges T354A and V71I (protein, UniProt P13181 1-574, looked up, variant V71I T354A)
Galactose transporter: MAVEENNMPVVSQQPQAGEDVISSLSKDSHLSAQSQKYSNDELKAGESGSEGSQSVPIEIPKKPMSEYVTISLLCLCVAFGGFMFGWDTGTISGFVVQTDFLRRFGMKHKDGTHYLSNVRTGLIVAIFNIGCAFGGIILSKGGDMYGRKKGLSIVVSVYIVGIIIQIASINKWYQYFIGRIISGLGVGGIAVLCPMLISEIAPKHLRGTLVSCYQLMITAGIFLGYCTNYGTKSYSNSVQWRVPLGLCFAWSLFMIGALTLVPESPRYLCEVNKVEDAKRSIAKSNKVSPEDPAVQAELDLIMAGIEAEKLAGNASWGELFSTKTKVFQRLLMGVFVQMFQQLTGNNYFFYYGAVIFKSVGLDDSFETSIVIGVVNFASTFFSLWTVENLGHRKCLLLGAATMMACMVIYASVGVTRLYPHGKSQPSSKGAGNCMIVFTCFYIFCYATTWAPVAWVITAESFPLRVKSKCMALASASNWVWGFLIAFFTPFITSAINFYYGYVFMGCLVAMFFYVFFFVPETKGLSLEEIQELWEEGVLPWKSEGWIPSSRRGNNYDLEDLQHDDKPWYKAMLE
B3: T354A: Gal2 of CEN.PK with amino acid exchange T354A alone (protein, listed as Saccharomyces cerevisiae)
chain: MAVEENNMPVVSQQPQAGEDVISSLSKDSHLSAQSQKYSNDELKAGESGPEGSQSVPIEIPKKPMSEYVTVSLLCLCVAFGGFMFGWDTGTISGFVVQTDFLRRFGMKHKDGTHYLSNVRTGLIVAIFNIGCAFGGIILSKGGDMYGRKKGLSIVVSVYIVGIIIQIASINKWYQYFIGRIISGLGVGGIAVLCPMLISEIAPKHLRGTLVSCYQLMITAGIFLGYCTNYGTKSYSNSVQWRVPLGLCFAWSLFMIGALTLVPESPRYLCEVNKVEDAKLSIAKSNKVSPEDPAVQAELDLIMAGIEAEKLAGNASWGELFSTKTKVFQRLLMGVFVQMFQQLTGNNYFFYYGAVIFKSVGLDDSFETSIVIGVVNFASTFFSLWTVENLGRRKCLLLGAATMMACMVIYASVGVTRLYPHGKSQPSSKGAGNCMIVFTCFYIFCYATTWAPVAWVITAESFPLRVKSKCMALASASNWVWGFLIAFFTPFITSAINFYYGYVFMGCLVAMFFYVFFFVPETKGLSLEEIQELWEEGVLPWKSEGWIPSSRRGNNYDLEDLQHDDKPWYKAMLE

Tests used:
Gal2 = Gal2 (Saccharomyces cerevisiae, UniProt P13181); details: galactose transport by Gal2; cited from earlier work
Sequence of Gal2 (P13181 whole entry): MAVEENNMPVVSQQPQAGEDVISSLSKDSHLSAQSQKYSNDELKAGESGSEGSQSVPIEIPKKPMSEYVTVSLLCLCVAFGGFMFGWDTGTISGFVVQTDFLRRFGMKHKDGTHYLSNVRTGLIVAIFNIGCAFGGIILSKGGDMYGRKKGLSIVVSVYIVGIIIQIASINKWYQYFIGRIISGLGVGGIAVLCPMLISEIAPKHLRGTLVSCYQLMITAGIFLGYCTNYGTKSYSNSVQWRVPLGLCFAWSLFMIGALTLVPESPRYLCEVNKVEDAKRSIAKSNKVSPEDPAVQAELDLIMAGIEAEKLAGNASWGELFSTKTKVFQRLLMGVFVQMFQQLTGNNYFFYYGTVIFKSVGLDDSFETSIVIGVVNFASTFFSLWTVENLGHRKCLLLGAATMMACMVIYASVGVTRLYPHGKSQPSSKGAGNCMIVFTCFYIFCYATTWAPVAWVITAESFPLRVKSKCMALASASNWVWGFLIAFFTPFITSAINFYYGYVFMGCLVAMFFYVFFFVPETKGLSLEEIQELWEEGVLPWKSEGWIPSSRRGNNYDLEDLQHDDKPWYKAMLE

AFY10 = test: Serial dilution growth drop test of Gal2 variants in AFY10 on xylose and xylose-glucose mixtures; type: cell-based, Saccharomyces cerevisiae; details: FIG. 4; 2 g/l xylose, six days at 30°
Protocol: The transformants were cultivated in 5 ml SCE-ura-leu with 2% ethanol at 300, washed with water and adjusted to an OD600 of 1. Thereof it followed a serial dilution. 5 μl were dropped onto the respective media and it was incubated for […] at 30°. As a control for the dilution SCE-ura-leu with 2% ethanol was taken. The cells of the mutated transporters were dropped onto SCX-ura-leu with 0.2% and 2% D-xylose, as well as SC-ura-leu with 1% D-xylose with 4% D-glucose and SC-ura-leu with 0.2% D-xylose and 2% D-glucose to test their functionality. Furthermore the wild type of CEN.PK2 and Ethanol Red, as well as Gal2_ep3.1 were used for comparison. The galactose transporter with the mutation T354A is from HDY.GUF10.
FIG. 4: Drop test of Gal2_T354A in combination with V71I and L280R in AFY10 after six days at 30°. Several dilutions were dropped from left to right (undiluted, 1:10, 1:100, 1:1000).
(§1) For easy comparison of growth of different S. cerevisiae strains under various growth conditions a serial dilution spot assay was performed. Cells were grown in liquid culture to exponential phase in appropriate medium, collected by centrifugation (2000×g, 2 min), washed twice with sterile water and then resuspended to an OD600 of 1.0 in selective medium without carbon source. From this cell suspension a ten-fold serial dilution was prepared in selective medium (four dilution steps). 6 μl of each cell suspension were spotted on plates of the media to be examined and allowed to dry. Plates were incubated at 30° C.
Furthermore this was also done with AFY10 in order to investigate the xylose specificity and the glucose affinity of the transformants.
The various constructs were transformed into AFY10 cells together with vector YEp181_pHXT7-optXI_Clos, and serial dilution growth drop tests were performed.

EBY.VW4000 = test: Serial dilution growth drop test of Gal2 variants in EBY.VW4000 on hexoses; type: cell-based, Saccharomyces cerevisiae; details: FIG. 3, four days at 30°; for growth on glucose: Gal2 of CEN.PK constructs
Protocol: The transformants were cultivated in 5 ml SCM-ura with 20 g/l maltose at 300, washed with water and adjusted to an OD600 of 1. Thereof it followed a serial dilution. 5 μl were dropped onto the respective media and it was incubated for […] at 30°. As a control for the dilution SCM-ura with 20 g/l maltose was taken. The cells of the mutated transporters were dropped onto SCD-ura with 0.2% and 2% glucose, as well as SCG-ura with 0.2% and 2% D-galactose to test their functionality. Furthermore the wild type of CEN.PK2 and Ethanol Red, as well as Gal2_ep3.1 were used for comparison. The galactose transporter with the mutation T354A is from HDY.GUF10.
FIG. 3: Drop test of Gal2_T354A in combination with V71I and L280R in EBY.VW4000 after four days at 30°. Several dilutions were dropped from left to right (undiluted, 1:10, 1:100, 1:1000).
as §1
First a growth test was performed with the vectors in VW4000 on glucose and maltose media. The galactose transporter of the wild type CEN.PK2, as well as Gal2_ep3.1 were used as controls and as a comparison.
The following variants of Gal2 were constructed in expression vectors: T354A, T354A+V71I, T354A+L280R, L280R and […]. They were transformed into competent EBY.VW4000 cells. Then drop tests were performed on different carbon sources.

Molecule | Km (Gal2) | growth on low xylose concentrations (AFY10) | effect on uptake of glucose or galactose (EBY.VW4000) | growth on glucose (EBY.VW4000)
O=C[C@H](O)[C@@H](O)[C@@H](O)[C@H](O)CO [galactose] | 1000 to 5000 µM |  |  | 
B1 |  | very slow growth; also recorded: poor growth | no effect | 
B2 |  | growth like the Gal2 wild type |  | does not mediate growth
B3 |  | poor growth |  | strongly impairs growth
